Assay results as given in US7588931B2, “High arachidonic acid producing strains of Yarrowia lipolytica” (E. I. du Pont de Nemours and Company, priority 2004, dated 2009).

System: Yarrowia lipolytica
Assay: Percent substrate conversion of desaturases and elongases expressed in Yarrowia lipolytica
Type: cell-based
Conditions: for percent (%) substrate conversion of the codon-optimized gene: transformants of strain Y2031, MM, 2 days; for Codon-Opt. Gene % Sub. Conv. / Native Gene % Sub. Conv.: percent substrate conversion; for Codon-Opt. Gene % Sub. Conv.: codon-optimized gene expressed in Y. lipolytica; for Native Gene % Sub. Conv.: expressed in Y. lipolytica
Description: The terms “conversion efficiency” and “percent substrate conversion” refer to the efficiency by which a particular enzyme (e.g., a desaturase or elongase) can convert substrate to product. The conversion efficiency is measured according to the following formula: ([product]/[substrate+product])*100, where ‘product’ includes the immediate product and all products in the pathway derived from it.
With respect to Δ12 desaturase, Applicants have made the surprising discovery that the Fusarium moniliforme Δ12 desaturase (encoded by SEQ ID NO:27) functions with greater efficiency than the native Yarrowia lipolytica Δ12 desaturase in producing 18:2 in Y. lipolytica (see WO 2005/047485). Specifically, expression of the F. moniliforme Δ12 desaturase under the control of the TEF promoter in Y. lipolytica was determined to produce higher levels of 18:2 (68% product accumulation of LA) than were previously attainable by expression of a chimeric gene encoding the Y. lipolytica Δ12 desaturase under the control of the TEF promoter (59% product accumulation of LA). This corresponds to a difference in percent substrate conversion (calculated as ([18:2+18:3]/[18:1+18:2+18:3])*100) of 85% versus 74%, respectively.
In the present invention, several desaturase and elongase genes from Table 5 were codon-optimized for expression in Yarrowia lipolytica, based on the host preferences described above. This was possible by first determining the Y. lipolytica codon usage profile (see WO 04/101757) and identifying those codons that were preferred. Then, for further optimization of gene expression in Y. lipolytica, the consensus sequence around the ‘ATG’ initiation codon was determined (i.e., ‘MAMMATGNHS’ (SEQ ID NO:356), wherein the nucleic acid degeneracy code used is as follows: M=A/C; S═C/G; H=A/C/T; and N=A/C/G/T). Table 7, below, compares the activity of native and codon-optimized genes when expressed in Y. lipolytica and provides details about each codon-optimized gene. % Sub. Conv. is the abbeviation for “percent substrate conversion” and Codon-Opt. is an abbreviation for “codon-optimized”.
Construct pDMW237 (FIG. 8C), an auto-replication plasmid comprising a chimeric FBAIN::1 g D9e::Pex20 gene, was transformed into Y. lipolytica Y2031 strain (Example 4) as described in the General Methods. Three transformants of Y2031 with pDMW237 were grown individually in MM media for two days and the cells were collected by centrifugation, lipids were extracted, and fatty acid methyl esters were prepared by trans-esterification, and subsequently analyzed with a Hewlett-Packard 6890 GC.
Construct pDMW297 was then used for transformation of strain Y2031 (Example 5) according to the General Methods. The transformant cells were plated onto MM selection media plates and maintained at 30° C. for 2 to 3 days. A total of 8 transformants grown on the MM plates were picked and re-streaked onto fresh MM plates. Once grown, these strains were individually inoculated into liquid MM at 30° C. and shaken at 250 rpm/min for 2 days. The cells were collected by centrifugation, lipids were extracted, and fatty acid methyl esters were prepared by trans-esterification, and subsequently analyzed with a Hewlett-Packard 6890 GC.

[1] = under the control of the TEF promoter in Y. lipolytica

Molecule | Codon-Opt. Gene % Sub. Conv. | Native Gene % Sub. Conv. | also measured
Y. lipolytica Δ12 desaturase: native Yarrowia lipolytica Δ12 desaturase, SEQ ID NOs:23 and 24 (protein, listed as Yarrowia lipolytica) MDSTTQTNTGTGKVAVQPPTAFIKPIEKVSEPVYDTFGNEFTPPDYSIKDILDAIPQECYKRSYVKSYSYVARDCFFIAVFAYMAYAYLPLIPSASGRAVAWAMYSIVQGLFGTGLWVLAHECGHSAFSDSNTVNNVTGWVLHSSMLVPYYAWKLTHSMHHKSTGHLTRDMVFVPKDRKEFMENRGAHDWSELAEDAPLMTLYGLITQQVFGWPLYLLSYVTGQKYPKLNKWAVNHFNPNAPLFEKKDWFNIWISNVGIGITMSVIAYSINRWGLASVTLYYLIPYLWVNHWLVAITYLQHTDPTLPHYHADQWNFTRGAAATIDREFGFIGSFCFHDIIETHVLHHYVSRIPFYNARIATEKIKKVMGKHYRHDDTNFIKSLYTVARTCQFVEGKEGIQMFRNVNGVGVAPDGLPSKK |  |  | percent substrate conversion (calculated as ([18:2+18:3]/[18:1+18:2+18:3])*100) [1]: 74%; product accumulation of LA [1]: 59%
IgD9e: synthetic codon-optimized Δ9 elongase gene, SEQ ID NO:41 (protein, IgD9e: synthetic delta-9 elongase (codon-optimized for Yarrowia lipolytica)) MALANDAGERIWAAVTDPEILIGTFSYLLLKPLLRNSGLVDEKKGAYRTSMIWYNVLLALFSALSFYVTATALGWDYGTGAWLRRQTGDTPQPLFQCPSPVWDSKLFTWTAKAFYYSKYVEYLDTAWLVLKGKRVSFLQAFHHFGAPWDVYLGIRLHNEGVWIFMFFNSFIHTIMYTYYGLTAAGYKFKAKPLITAMQICQFVGGFLLVWDYINVPCFNSDKGKLFSWAFNYAYVGSVFLLFCHFFYQDNLATKKSAKAGKQL |  |  | percent (%) substrate conversion of the codon-optimized gene: about 13%
D8SF: completely corrected synthetic codon-optimized Δ8 desaturase gene, SEQ ID NO:48 (protein, D8SF: synthetic delta-8 desaturase (codon-optimized for Yarrowia lipolytica)) MVKSKRQALPLTIDGTTYDVSAWVNFHPGGAEIIENYQGRDATDAFMVMHSQEAFDKLKRMPKINPSSELPPQAAVNEAQEDFRKLREELIATGMFDASPLWYSYKISTTLGLGVLGYFLMVQYQMYFIGAVLLGMHYQQMGWLSHDICHHQTFKNRNWNNLVGLVFGNGLQGFSVTWWKDRHNAHHSATNVQGHDPDIDNLPLLAWSEDDVTRASPISRKLIQFQQYYFLVICILLRFIWCFQSVLTVRSLKDRDNQFYRSQYKKEAIGLALHWTLKTLFHLFFMPSILTSLLVFFVSELVGGFGIAIVVFMNHYPLEKIGDSVWDGHGFSVGQIHETMNIRRGIITDWFFGGLNYQIEHHLWPTLPRHNLTAVSYQVEQLCQKHNLPYRNPLPHEGLVILLRYLAVFARMAEKQPAGKAL |  |  | percent (%) substrate conversion of the codon-optimized gene: 75%
M. alpina Δ6 desaturase: GenBank AF465281; codon-optimized gene SEQ ID NO:3 (protein, listed as Mortierella alpina, misc_feature: synthetic delta-6 desaturase (codon-optimized)) MAAAPSVRTFTRAEVLNAEALNEGKKDAEAPFLMIIDNKVYDVREFVPDHPGGSVILTHVGKDGTDVFDTFHPEAAWETLANFYVGDIDESDRDIKNDDFAAEVRKLRTLFQSLGYYDSSKAYYAFKVSFNLCIWGLSTVIVAKWGQTSTLANVLSAALLGLFWQQCGWLAHDFLHHQVFQDRFWGDLFGAFLGGVCQGFSSSWWKDKHNTHHAAPNVHGEDPDIDTHPLLTWSEHALEMFSDVPDEELTRMWSRFMVLNQTWFYFPILSFARLSWCLQSILFVLPNGQAHKPSGARVPISLVEQLSLAMHWTWYLATMFLFIKDPVNMLVYFLVSQAVCGNLLAIVFSLNHNGMPVISKEEAVDMDFFTKQIITGRDVHPGLFANWFTGGLNYQIEHHLFPSMPRHNFSKIQPAVETLCKKYNVRYHTTGMIEGTAEVFSRLNEVSKATSKMGKAQ | 42% | 30% | 
M. alpina high affinity C18/20 elongase: GenBank AX464731; codon-optimized gene SEQ ID NO:19 (protein, listed as Mortierella alpina, misc_feature: synthetic elongase 1 (codon-optimized)) MESIAPFLPSKMPQDLFMDLASAIGVRAAPYVDPLEAALVAQAEKYIPTIVHHTRGFLVAVESPLARELPLMNPFHVLLIVLAYLVTVFVGMQIMKNFERFEVKTFSLLHNFCLVSISAYMCGGILYEAYQANYGLFENAADHTFKGLPMAKMIWLFYFSKIMEFVDTMIMVLKKNNRQISFLHVYHHSSIFTIWWLVTFVAPNGEAYFSAALNSFIHVIMYGYYFLSALGFKQVSFIKFYITRSQMTQFCMMSVQSSWDMYAMKVLGRPGYPFFITALLWFYMWTMLGLFYNFYRKNAKLAKQAKADAAKEKARKLQ | 47% | 30% | 
T. aureum C18/20 elongase: codon-optimized gene SEQ ID NO:22 (protein, listed as Thraustochytrium aureum, misc_feature: synthetic elongase (codon-optimized)) MANSSVWDDVVGRVETGVDQWMDGAKPYALTDGLPMMDVSTMLAFEVGYMAMLLFGIPIMKQMEKPFELKTIKLLHNLFLFGLSLYMCVETIRQAILGGYKVFGNDMEKGNESHAQGMSRIVYVFYVSKAYEFLDTAIMILCKKFNQVSFLHVYHHATIFAIWWAIAKYAPGGDAYFSVILNSFVHTVMYAYYFFSSQGFGFVKPIKPYITTLQMTQFMAMLVQSLYDYLFPCDYPQALVQLLGVYMITLLALFGNFFVQSYLKKPKKSKTN | 46% | 33% | 
S. diclina Δ17 desaturase: US 2003/0196217 A1; codon-optimized gene SEQ ID NO:16 (protein, listed as Saprolegnia diclina, misc_feature: synthetic delta-17 desaturase (codon-optimized)) MAEDKTKVEFPTLTELKHSIPNACFESNLGLSLYYTARAIFNASASAALLYAARSTPFIADNVLLHALVCATYIYVQGVIFWGFFTVGHDCGHSAFSRYHSVNFIIGCIMHSAILTPFESWRVTHRHHHKNTGNIDKDEIFYPHRSVKDLQDVRQWVYTLGGAWFVYLKVGYAPRTMSHFDPWDPLLLRRASAVIVSLGVWAAFFAAYAYLTYSLGFAVMGLYYYAPLFVFASFLVITTFLHHNDEATPWYGDSEWTYVKGNLSSVDRSYGAFVDNLSHHIGTHQVHHLFPIIPHYKLNEATKHFAAAYPHLVRRNDEPIITAFFKTAHLFVNYGAVPETAQIFTLKESAAAAKAKSD | 45% | 23% | 
Isochrysis galbana Δ9 elongase: codon-optimized gene SEQ ID NO:41 (protein, IgD9e: synthetic delta-9 elongase (codon-optimized for Yarrowia lipolytica)) MALANDAGERIWAAVTDPEILIGTFSYLLLKPLLRNSGLVDEKKGAYRTSMIWYNVLLALFSALSFYVTATALGWDYGTGAWLRRQTGDTPQPLFQCPSPVWDSKLFTWTAKAFYYSKYVEYLDTAWLVLKGKRVSFLQAFHHFGAPWDVYLGIRLHNEGVWIFMFFNSFIHTIMYTYYGLTAAGYKFKAKPLITAMQICQFVGGFLLVWDYINVPCFNSDKGKLFSWAFNYAYVGSVFLLFCHFFYQDNLATKKSAKAGKQL | 30% |  | 
Isochrysis galbana Δ5 desaturase: codon-optimized gene SEQ ID NO:10 (protein, listed as Isochrysis galbana, misc_feature: synthetic delta-5 desaturase (codon-optimized)) MVAGKSGAAAHVTHSSTLPREYHGATNDSRSEAADVTVSSIDAEKEMIINGRVYDVSSFVKRHPGGSVIKFQLGADASDAYNNFHVRSKKADKMLYSLPSRPAEAGYAQDDISRDFEKLRLELKEEGYFEPNLVHVSYRCVEVLAMYWAGVQLIWSGYWFLGAIVAGIAQGRCGWLQHEGGHYSLTGNIKIDRHLQMAIYGLGCGMSGCYWRNQHNKHHATPQKLGTDPDLQTMPLVAFHKIVGAKARGKGKAWLAWQAPLFFGGIICSLVSFGWQFVLHPNHALRVHNHLELAYMGLRYVLWHLAFGHLGLLSSLRLYAFYVAVGGTYIFTNFAVSHTHKDVVPPTKHISWALYSANHTTNCSDSPFVNWWMAYLNFQIEHHLFPSMPQYNHPKIAPRVRALFEKHGVEYDVRPYLECFRVTYVNLLAVGNPEHSYHEHTH | 32% | 7% | 
